Target: T1, monkey CD40 extracellular domain expressed with a C-terminal myc-myc-hexahistidine tag (monkey)
T1 construct: also called mfCD40-MMH; REGN3097
T1 chain: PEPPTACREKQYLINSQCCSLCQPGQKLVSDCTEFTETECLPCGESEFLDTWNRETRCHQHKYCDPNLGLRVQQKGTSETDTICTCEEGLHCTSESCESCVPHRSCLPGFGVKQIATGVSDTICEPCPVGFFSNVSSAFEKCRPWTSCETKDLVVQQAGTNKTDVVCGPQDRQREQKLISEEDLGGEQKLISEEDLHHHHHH
Assay: SPR Biacore 4000, mAb captured, 37C
Experimental: The equilibrium dissociation constants (KD) for anti-CD40 bivalent and bispecific monoclonal antibodies (mAbs) were determined using a real-time surface plasmon resonance (SPR)-based Biacore 4000 biosensor. All binding studies were performed in 10 mM HEPES, 150 mM NaCl, 3 mM EDTA, and 0.05% v/v surfactant Tween-20, pH 7.4 (HBS-ET) running buffer at 25° C. and 37° C. The Biacore CM5 sensor surface was first derivatized by amine coupling with a monoclonal mouse anti-human Fc antibody (REGN2567) to capture anti-CD40 bivalent parental and anti-CD40×CD40 bispecific antibodies. Different concentrations of CD40 reagents, human CD40 extracellular domain expressed with a C-terminal myc-myc-hexahistidine tag (SEQ ID NO: 1114) (“hCD40-MMH”; REGN3094; SEQ ID NO: 53), monkey CD40 extracellular domain expressed with a C-terminal myc-myc-hexahistidine tag (SEQ ID NO: 1114) (“mfCD40-MMH”; REGN3097; SEQ ID NO: 54), and mouse CD40 extracellular domain expressed with a C-terminal myc-myc-hexahistidine tag (SEQ ID NO: 1114) (“mCD40-MMH”; REGN3098; SEQ ID NO: 55), at concentrations ranging from 3.7 nM to 100 nM or 3.3 nM to 90 nM in a series of 3-fold dilutions prepared in HBS-ET running buffer were injected at a flow rate of 30 μL/min for 4 minutes or 50 μL/min for 5 minutes. The dissociation of different CD40 reagents bound to anti-CD40 bivalent parental and anti-CD40×CD40 bispecific antibodies was monitored for 10 minutes in HBS-ET running buffer. At the end of each cycle, the anti-CD40 bivalent parental and anti-CD40×CD40 bispecific antibodies capture surface was regenerated using a 12 sec injection of 20 mM H₃PO₄.
The association rate (ka) and dissociation rate (kd) were determined by fitting the real-time binding sensorgrams to a 1:1 binding model with mass transport limitation using Scrubber 2.0c curve-fitting software. Binding dissociation equilibrium constant (KD) and dissociative half-life (t_{1/2}) were calculated from the kinetic rates as: KD(M)=kd/kₐ, and t_{1/2} (min)=[ln(2)/(60*kd)].

Kd: 3.16 nM
koff: 0.00333 s⁻¹
kon: 1.05e+06 M⁻¹ s⁻¹
t1/2: 3.5 min
B1: 30027P2 (antibody, human IgG4 S228P, kappa, V domains shown)
VH: EVQLVESGGGLVQPGGSLRLSCAASGFTFSSYAMNWVRQAPGKGLEWVSIISGTIGKTYYADSVKGRFTISRDNSKNTLYLQMNSLRGEDTAVYYCAKDTERDITGSPFDYWGQGTLVTVSS
VL: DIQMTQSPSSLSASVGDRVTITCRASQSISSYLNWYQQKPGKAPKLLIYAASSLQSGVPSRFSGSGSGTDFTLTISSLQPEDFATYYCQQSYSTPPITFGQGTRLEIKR
notes: parental bivalent anti-CD40 mAb; common light chain; also called H4sH30027P2

Source: patent publication US20250277048A1 (Regeneron, published 2025)
